Test results taken from patent US20180273639A1 (YEDA RESEARCH AND DEVELOPMENT, published 2018).
Residue numbers refer to the chain shown, from its start. In names and notes the source's numbering stands.

Legend:
[1] = target: MmQSOX1 A116P (Mus musculus); assay: cell-based or functional assay
[2] = target: MmQSOX1 A116P and TLPG(138-141)VFPV (Mus musculus); assay: cell-based or functional assay
[3] = target: MmQSOX1 TLPG(138-141)VFPV (Mus musculus); assay: cell-based or functional assay
[4] = target: T1, Homo sapiens QSOX1 (recombinant HsQSOX1) (Homo sapiens, UniProt O00391 33-546, limits assumed); assay: cell-based or functional assay
T1 sequence: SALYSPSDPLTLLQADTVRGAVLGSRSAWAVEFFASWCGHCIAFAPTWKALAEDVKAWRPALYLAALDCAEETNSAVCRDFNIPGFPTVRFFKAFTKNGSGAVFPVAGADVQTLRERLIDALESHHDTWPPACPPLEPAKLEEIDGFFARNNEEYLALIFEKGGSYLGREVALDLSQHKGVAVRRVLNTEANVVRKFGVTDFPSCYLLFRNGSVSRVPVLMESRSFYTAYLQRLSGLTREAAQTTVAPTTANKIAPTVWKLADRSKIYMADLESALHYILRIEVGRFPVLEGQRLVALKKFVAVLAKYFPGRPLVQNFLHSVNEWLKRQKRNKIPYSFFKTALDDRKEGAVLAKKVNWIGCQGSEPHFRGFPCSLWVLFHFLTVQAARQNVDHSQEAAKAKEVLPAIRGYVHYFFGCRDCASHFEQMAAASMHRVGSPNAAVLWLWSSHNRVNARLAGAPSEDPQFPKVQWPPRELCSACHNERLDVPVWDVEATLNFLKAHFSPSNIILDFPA

[5] = target: T2, biotinylated MmQSOX1Trx (Mus musculus, UniProt Q8BND5 36-275, Biotin on the lysine of the C-terminal AviTag (tag not in the letters); in early screening rounds pre-loaded with streptavidin-APC); assay: yeast-surface display flow cytometry
T2 construct: Used for yeast-surface display; in the first screening rounds pre-loaded with streptavidin-APC in a 1:4 molar ratio; also called MmQSOX1Trx with AviTag; not shown: purification tag
T2 sequence: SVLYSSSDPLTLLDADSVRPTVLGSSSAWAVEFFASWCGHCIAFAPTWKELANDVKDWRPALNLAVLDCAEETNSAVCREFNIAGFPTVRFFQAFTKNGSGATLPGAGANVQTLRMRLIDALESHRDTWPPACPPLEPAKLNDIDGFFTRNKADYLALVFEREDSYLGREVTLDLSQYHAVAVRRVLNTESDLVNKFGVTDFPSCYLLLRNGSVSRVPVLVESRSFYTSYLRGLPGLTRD

[6] = target: T3, MmQSOX1Erv (Mus musculus, UniProt Q8BND5 289-550, FAD cofactor bound); assay: analytical size-exclusion chromatography
T3 construct: also called MmQSOX1 Erv module
T3 sequence: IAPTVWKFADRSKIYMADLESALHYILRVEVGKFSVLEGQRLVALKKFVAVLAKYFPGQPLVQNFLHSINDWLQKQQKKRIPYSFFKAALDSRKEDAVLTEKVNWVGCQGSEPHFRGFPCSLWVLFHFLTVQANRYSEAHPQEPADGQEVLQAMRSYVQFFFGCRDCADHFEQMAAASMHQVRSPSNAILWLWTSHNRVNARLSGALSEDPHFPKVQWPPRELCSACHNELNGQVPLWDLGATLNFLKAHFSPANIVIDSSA
Procedure: (§1) MsQSOX1-antibody complexes were injected after a 30 min co-incubation at 4° C. Elution of proteins was monitored by absorbance at 280 nm.

[7] = target: T4, MmQSOX1Trx (Mus musculus, UniProt Q8BND5 36-275); assay: analytical size-exclusion chromatography
T4 construct: Residues 36-275 of Mus musculus QSOX1, made in E. coli, purified on Ni-NTA; also called MmQSOX1Trv; Trx module of MmQSOX1
T4 sequence: T2 sequence
Procedure: as §1

[8] = target: T4, MmQSOX1Trx; assay: complex purified by size-exclusion chromatography
Procedure: A stop codon was inserted after the CH1 segment of the heavy chain, to obtain a coding sequence for a Fab fragment. […] Prior to crystallization the complexes were concentrated to 10 mg/ml.

B1: MAb492.1 (antibody, V domains shown)
VH: QVQLKQSGPGLVAPSQSLSITCTVSGFSLTGYGVNWVRQSPGKGLEWLGMIWGDGRTDYKSALKSRLSITKDNSKSQVFLKMNSLQTDDTARYFCASDYYGSGSFAYWGQGTLVTVSA
VL: DVVMTQTHKFMSTSVGDRVSITCKASQDVSTAVAWYQQKSGQSPKLLIHSASYRYTGVPDRFTGSGSGTDFTFTISSVQAEDLAVYYCQQHYSIPLTFGAGTKLELK
How did the “percent inhibition of enzyme activity, oxygen consumption assay” value (shortened to “percent inhibition of enzyme activity”) [1] turn out when B1 was run?
The value was ~60%.

And the “percent inhibition of enzyme activity” value [2]?
Its value is 100%.

What about the “percent inhibition of enzyme activity” value [3] of the same binder?
Its value is ~50%.

And the “percent inhibition of enzyme activity” value [4]?
The value was 100%.

B2: scFv492.1 S93A Y99S Y100K G101D S102P D58E T31G H49S S50M Y52Q (scFv, V domains shown)
VH: B1 VH with D58E, Y99S, Y100K, G101D, S102P
VL: B1 VL with T31G, H49S, S50M, Y53Q, S93A
notes: also called template d; not shown: scFv linker and domain order; yeast display fusion partner and cMyc tag (pETCON)
Does B2 bind [5]?
Result: binds

B3: MAb316.1 (antibody, V domains shown)
VH: QVQLQQSGPELVKPGASVKISCKASGYSFTSYYIHWVKQRPGQGLEWIGWIYPGSYNTEYSEKFKGKATLTADTSSSTAYMQLSSLTSEDSAVYYCARSEDWFAYWGQGTLVTVS
VL: QIVLTQSPAIMSASPGEKVTISCSASSSVSYMYWYHQKPGSSPKPWIYRTSNLASGVPARFSGSGSGTSYSLTISSMEAEDAATYYCQQYHSYPLTFGAGTKLELK
notes: Hybridoma antibody from QSOX1 knock-out mice immunised with MmQSOX1
Which results are given for B3?
binding result [6]: no binding; binding result [7]: binds

B4: Fab316.1 (Fab, V domains shown)
VH: B3 VH
VL: B3 VL
notes: also called Fab fragment of MAb316.1
Does B4 bind [8]?
Result: binds
